# B1: REGN10989 Fab (Fab, V domains shown)
# VH: QVQLVQSGAEVKKPGASVKVSCKASGYIFTGYYMHWVRQAPGQGLEWMGWINPNSGGANYAQKFQGRVTLTRDTSITTVYMELSRLRFDDTAVYYCARGSRYDWNQNNWFDPWGQGTLVTVSS
# VL: QSALTQPASVSGSPGQSITISCTGTSSDVGTYNYVSWYQQHPGKAPKLMIFDVSNRPSGVSDRFSGSKSGNTASLTISGLQAEDEADYYCSSFTTSSTVVFGGGTKLTVL
# B2: REGN10985 Fab (Fab, V domains shown)
# VH: EVQLVESGGGLVQPGRSLRLSCAASGFTFDDYAMHWVRQAPGKGLEWVSGISWNRGSIGYADSVKGRFTISRDNAKNSLYLQMSSLRAEDTALYYCAKDGERWDSVVVPSARNGMDVWGQGTTVTVSS
# VL: QSVLTQPPSVSGAPGQRVTISCTGSSSNIGAGYDVHWYQQLPGTAPKLLIYGNSNRPSGVPDRFSGSKSGTSASLAITGLQAEDEADYYCQSYDSSLSGSYVFGTGTKVTVL
# Target: SARS-CoV-2 spike receptor binding domain (SARS-CoV-2, UniProt P0DTC2)
# Experiment: cryo-EM structure
row,Binder,binding result
1,B1,binds
2,B2,binds

# — article PMC8179113 (Cell, 2021)
